Laboratory results published in paper PMC6922461 (PLoS Biology, 2019).

Legend:
[1] = target: Strep-Tactin-SpyCatcherΔ subunit; test: refolding of mixed subunits, anion exchange chromatography, SDS-PAGE densitometry; subunits from washed inclusion bodies mixed at 3:1, refolded by rapid dilution, tetramers separated on Mono Q; boiled peak samples on reducing SDS-PAGE, bands normalised for molecular weight and converted to a subunit ratio; settings: both partners purified
[2] = target: the molecule itself; test: as above

Chain of Strep-Tactin-SpyCatcherΔ subunit (chain, as listed by the source mutant): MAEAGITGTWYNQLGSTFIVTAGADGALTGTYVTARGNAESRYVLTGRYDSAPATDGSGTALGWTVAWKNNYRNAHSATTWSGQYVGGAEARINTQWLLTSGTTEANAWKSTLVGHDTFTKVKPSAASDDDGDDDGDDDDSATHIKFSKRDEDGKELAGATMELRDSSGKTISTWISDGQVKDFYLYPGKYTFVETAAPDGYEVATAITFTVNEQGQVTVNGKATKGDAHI

B1: dead streptavidin subunit (other)
chain: MAEAGITGTWYAQLGDTFIVTAGADGALTGTYEAAVGNAESRYVLTGRYDSAPATDGSGTALGWTVAWKNNYRNAHSATTWSGQYVGGAEARINTQWLLTSGTTEANAWKSTLVGHDTFTKVKPSAAS
notes: also called dead streptavidin monomer
B1 was tested, and the “stoichiometry N” value [1] was 3.7 dead streptavidin per Strep-Tactin-SpyCatcherΔ and the binding result [2] was “binds”.
